From the RNAGym collection of RNA variant scans (doi:10.1073/pnas.2313332121) come the findings set out here.

Sequences and labels used below:
B1: TPR t1 (parent)
chain: GACCAAUCUGCCCUCAGAGCUCGAGAACAUCUUCGGAUGCAGAGGAGGCAGGCUUCGGUGGCGCGAUAGCGCCAACGUCCUCAACCUCCAAUGCAUCCCACCACAUGAUGAUGCCUGAAGAGCCUUGGUUUUUUG

Variants of B1 are the subject of this data set. Put plainly: polymerase ribozyme fitness, log enrichment relative to wild type (log ratio); higher = more active; in vitro selection for triplet polymerase activity. In a few lines:
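Fitness measures genotype enrichment against wild-type enrichment on a logarithmic scale, with inverse-variance-weighted averaging of replicates. The logarithm is base 2, and genotypes were kept only with ≥10 input reads and ≥1 read per output in Illumina sequencing. The sequenced libraries came from one triplicate in vitro selection round, including frozen incubation at −7 °C, of PCR-built, transcribed mutant libraries of each subunit of a heterodimeric triplet polymerase ribozyme.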
As for A24U C49A C82G U112A U133C, the “polymerase ribozyme fitness (log ratio)” value is -4.62.

Turning to A5U G10A A37U U55G, the “polymerase ribozyme fitness (log ratio)” value was -0.809.

For C11U C22G C31A C72G C99U C123A, the “polymerase ribozyme fitness (log ratio)” value was -5.82.

Consider G19A C85U, for which the “polymerase ribozyme fitness (log ratio)” value is -3.47.

Regarding C28G C72G, the “polymerase ribozyme fitness (log ratio)” value was -2.2.

For the variant C11A C13A A74C, the “polymerase ribozyme fitness (log ratio)” value was -2.72.

Regarding A27C C86G U133A, the “polymerase ribozyme fitness (log ratio)” value is -5.16.

For the variant C62A G120A, the “polymerase ribozyme fitness (log ratio)” value was -0.339.

As for U21A A43U C73U A90G, the “polymerase ribozyme fitness (log ratio)” value was -2.19.

As for G63U C70A, the “polymerase ribozyme fitness (log ratio)” value was -0.179.

Take C11G U126A: the “polymerase ribozyme fitness (log ratio)” value was -0.924.

On to G63A, for which the “polymerase ribozyme fitness (log ratio)” value is -0.907.

Turning to U59A A75U C86A C115G U116A G117A, the “polymerase ribozyme fitness (log ratio)” value is -5.94.

Regarding G36U A68G, the “polymerase ribozyme fitness (log ratio)” value was -3.62.

Regarding C15U C102U, the “polymerase ribozyme fitness (log ratio)” value is -3.1.

Regarding G61U G69U G120A, the “polymerase ribozyme fitness (log ratio)” value was 0.591.

For the variant C56U C72G, the “polymerase ribozyme fitness (log ratio)” value is -0.66.

On to C70G U87C, for which the “polymerase ribozyme fitness (log ratio)” value was -4.17.

Regarding G52A G60A, the “polymerase ribozyme fitness (log ratio)” value was -0.303.

In the case of C79U C104A, the “polymerase ribozyme fitness (log ratio)” value was -2.22.

As for G10U G47C G51A C53G C56U, the “polymerase ribozyme fitness (log ratio)” value is -2.84.

Consider C11G A121G, for which the “polymerase ribozyme fitness (log ratio)” value came out at 1.78.

Consider A18G G93A, for which the “polymerase ribozyme fitness (log ratio)” value is -3.21.

As for C72G U131A, the “polymerase ribozyme fitness (log ratio)” value is -0.469.

For the variant C53A C79U C94G C101A, the “polymerase ribozyme fitness (log ratio)” value is -1.64.

U78C U92C U96C U106A: the “polymerase ribozyme fitness (log ratio)” value was -1.75.

Turning to C56U G93U U116C, the “polymerase ribozyme fitness (log ratio)” value was -1.7.

A37G A95C: the “polymerase ribozyme fitness (log ratio)” value was -1.66.

For the variant A46U G58C C70A, the “polymerase ribozyme fitness (log ratio)” value was -2.22.

As for C22G G63A C114U, the “polymerase ribozyme fitness (log ratio)” value was -3.48.

Consider C56U A91U, for which the “polymerase ribozyme fitness (log ratio)” value is -1.19.

G42U C72G G128C: the “polymerase ribozyme fitness (log ratio)” value is -4.55.

For C13G C53G G63C, the “polymerase ribozyme fitness (log ratio)” value is -2.03.

As for C13U C72U U129G, the “polymerase ribozyme fitness (log ratio)” value was -0.856.

Consider C31U G63U G107A, for which the “polymerase ribozyme fitness (log ratio)” value is -2.29.

A5G C11A U81C: the “polymerase ribozyme fitness (log ratio)” value is -1.86.

Regarding G60C A95G, the “polymerase ribozyme fitness (log ratio)” value was determined as 0.473.

For the variant A6G A18U C40G G42U U81C, the “polymerase ribozyme fitness (log ratio)” value was -4.14.

With C88G G110A, the “polymerase ribozyme fitness (log ratio)” value is -1.15.

Consider C73U C79G G113U, for which the “polymerase ribozyme fitness (log ratio)” value is -5.88.

Regarding A50C U92G U112A G135A, the “polymerase ribozyme fitness (log ratio)” value is -3.14.

Regarding C31G C88G G110A U126G, the “polymerase ribozyme fitness (log ratio)” value was -6.03.

C12G C79A: the “polymerase ribozyme fitness (log ratio)” value is -1.01.

As for C12G G113U, the “polymerase ribozyme fitness (log ratio)” value is -3.38.

Regarding C70A U132A, the “polymerase ribozyme fitness (log ratio)” value was -0.853.

In the case of C11A G17U, the “polymerase ribozyme fitness (log ratio)” value was -3.57.

In the case of C73U C115G U132A, the “polymerase ribozyme fitness (log ratio)” value was -1.49.

Regarding A29G U38G A43U A90C G113U U125C, the “polymerase ribozyme fitness (log ratio)” value is -3.96.

A29G G39U C72G: the “polymerase ribozyme fitness (log ratio)” value is -3.09.

Turning to G45U G60C C88G, the “polymerase ribozyme fitness (log ratio)” value was -1.14.

In the case of A5U A91C U96G A121G, the “polymerase ribozyme fitness (log ratio)” value was -0.932.

A18U C40U A46C C82A C86A C124G: the “polymerase ribozyme fitness (log ratio)” value was -4.93.

Regarding G61A G120U, the “polymerase ribozyme fitness (log ratio)” value worked out at 0.215.

U54A G113U C114G A121C: the “polymerase ribozyme fitness (log ratio)” value was -2.43.

Take A6C G48U C53U U59G C64U A95G: the “polymerase ribozyme fitness (log ratio)” value is -3.63.

Take A6C G36U G51A U109C C115U: the “polymerase ribozyme fitness (log ratio)” value was -6.39.

C13G G47A: the “polymerase ribozyme fitness (log ratio)” value was -2.67.

Regarding A18U G39U G48U C73U A84C, the “polymerase ribozyme fitness (log ratio)” value was -4.34.

As to G45A C82A, the “polymerase ribozyme fitness (log ratio)” value was -1.1.

C82G U109G: the “polymerase ribozyme fitness (log ratio)” value is -5.33.

C8A C53G: the “polymerase ribozyme fitness (log ratio)” value was -0.744.

For the variant G45A G51U, the “polymerase ribozyme fitness (log ratio)” value was -4.34.

As for U21C G44A A119G U125G, the “polymerase ribozyme fitness (log ratio)” value is -1.38.

For C99A G122A, the “polymerase ribozyme fitness (log ratio)” value was -5.29.

In the case of C12G G47U, the “polymerase ribozyme fitness (log ratio)” value is -1.82.

For C12U G61U, the “polymerase ribozyme fitness (log ratio)” value worked out at 0.129.

Regarding A27U C53A C56A U131G, the “polymerase ribozyme fitness (log ratio)” value is -2.89.

On to C73A C88U C99A A100C, for which the “polymerase ribozyme fitness (log ratio)” value was -3.87.

For C8A C20U G60A C98U, the “polymerase ribozyme fitness (log ratio)” value is -0.889.

For the variant C20U A43G G63A, the “polymerase ribozyme fitness (log ratio)” value is -4.59.

As to C62G A121U, the “polymerase ribozyme fitness (log ratio)” value was determined as 0.647.

Turning to C20U A105U, the “polymerase ribozyme fitness (log ratio)” value is -3.87.

For the variant C62A U132A, the “polymerase ribozyme fitness (log ratio)” value is -0.682.

With G10U C28G G60A C85A U131G, the “polymerase ribozyme fitness (log ratio)” value is -4.5.

Take C72U U133C: the “polymerase ribozyme fitness (log ratio)” value amounted to 0.275.

With C11G C28G G60A A68C U81A U106C G127C, the “polymerase ribozyme fitness (log ratio)” value was -6.42.

For the variant A27U G71A U96A U109A, the “polymerase ribozyme fitness (log ratio)” value is -6.15.

Consider C12A G36U, for which the “polymerase ribozyme fitness (log ratio)” value is -1.6.

Turning to A26U C56A U59C, the “polymerase ribozyme fitness (log ratio)” value is -4.4.

C40G G52A A118U: the “polymerase ribozyme fitness (log ratio)” value was -0.83.

With C11A A37G G60U C101A U131G, the “polymerase ribozyme fitness (log ratio)” value is -2.57.

In the case of A27G C49U A91C, the “polymerase ribozyme fitness (log ratio)” value is -4.72.

Take A27G U32G C62U U78G G120C: the “polymerase ribozyme fitness (log ratio)” value is -6.42.

Turning to C56U A95C A118C C124A U132A, the “polymerase ribozyme fitness (log ratio)” value was -0.917.
